From publication PMC9849446, “Heating-mediated purification of active FGF21 and structure-based design of its variant with enhanced potency” (Scientific Reports, 2023)

T1: Human β-Klotho (human, UniProt Q86Z14 1-996)
T1 sequence (looked up): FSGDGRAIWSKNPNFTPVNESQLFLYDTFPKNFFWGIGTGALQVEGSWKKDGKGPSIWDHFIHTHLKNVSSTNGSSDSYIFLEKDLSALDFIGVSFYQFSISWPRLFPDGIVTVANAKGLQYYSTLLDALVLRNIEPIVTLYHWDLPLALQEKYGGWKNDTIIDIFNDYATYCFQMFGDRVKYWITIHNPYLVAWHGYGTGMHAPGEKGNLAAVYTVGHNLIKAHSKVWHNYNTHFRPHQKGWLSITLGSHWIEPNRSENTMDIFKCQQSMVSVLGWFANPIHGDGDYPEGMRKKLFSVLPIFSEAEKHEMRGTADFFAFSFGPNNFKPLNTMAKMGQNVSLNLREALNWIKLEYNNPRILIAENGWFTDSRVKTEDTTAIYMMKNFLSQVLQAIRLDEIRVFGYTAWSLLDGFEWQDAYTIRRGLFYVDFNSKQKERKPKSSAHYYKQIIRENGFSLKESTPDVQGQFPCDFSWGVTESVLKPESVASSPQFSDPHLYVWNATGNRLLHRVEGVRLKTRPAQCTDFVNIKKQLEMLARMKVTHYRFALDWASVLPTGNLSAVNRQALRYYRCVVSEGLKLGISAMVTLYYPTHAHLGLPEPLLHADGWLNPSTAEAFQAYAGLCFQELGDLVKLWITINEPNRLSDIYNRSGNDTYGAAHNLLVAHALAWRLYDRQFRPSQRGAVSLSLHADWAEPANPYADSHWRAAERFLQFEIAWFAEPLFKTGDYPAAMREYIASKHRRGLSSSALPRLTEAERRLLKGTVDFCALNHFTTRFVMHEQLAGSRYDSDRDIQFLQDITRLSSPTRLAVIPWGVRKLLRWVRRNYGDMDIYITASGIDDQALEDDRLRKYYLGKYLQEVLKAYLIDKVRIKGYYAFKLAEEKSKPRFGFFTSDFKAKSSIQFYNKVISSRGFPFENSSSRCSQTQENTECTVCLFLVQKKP

B1: wild type human FGF21 purified through heat treatment (htFGF21) (ligand, UniProt Q9NSA1 33-209, looked up)
chain: DSSPLLQFGGQVRQRYLYTDDAQQTEAHLEIREDGTVGGAADQSPESLLQLKALKPGVIQILGVKTSRFLCQRPDGALYGSLHFDPEACSFRELLLEDGYNVYQSEAHGLPLHLPGNKSPHRDPAPRGPARFLPLPGLPPALPEPPGILAPQPPDVGSSDPLSMVGPSQGRSPSYAS
notes: human fibroblast growth factor 21 (FGF21), residues 33-209; The TEV site ENLYFQ/G stood between Trx and FGF21, so a Gly probably remains before residue 33 after cleavage (surmised); also called htWT; wild type htFGF21; not shown: Trx, N-terminal, cleaved
B2: htFGF21 variant with S195G, P199G, S200G, Q201H, and A208T mutations (htM5) (ligand, human, UniProt Q9NSA1 33-209, looked up)
chain: DSSPLLQFGGQVRQRYLYTDDAQQTEAHLEIREDGTVGGAADQSPESLLQLKALKPGVIQILGVKTSRFLCQRPDGALYGSLHFDPEACSFRELLLEDGYNVYQSEAHGLPLHLPGNKSPHRDPAPRGPARFLPLPGLPPALPEPPGILAPQPPDVGSSDPLGMVGGGHGRSPSYTS
notes: human FGF21 with S195G, P199G, S200G, Q201H and A208T; A Gly from the TEV site probably remains at the N-terminus (surmised); also called M5 variant; not shown: Trx, N-terminal, cleaved
B3: wild type human FGF21 purified without heating (nFGF21) (ligand, UniProt Q9NSA1 33-209, looked up)
chain: DSSPLLQFGGQVRQRYLYTDDAQQTEAHLEIREDGTVGGAADQSPESLLQLKALKPGVIQILGVKTSRFLCQRPDGALYGSLHFDPEACSFRELLLEDGYNVYQSEAHGLPLHLPGNKSPHRDPAPRGPARFLPLPGLPPALPEPPGILAPQPPDVGSSDPLSMVGPSQGRSPSYAS
notes: human fibroblast growth factor 21 (FGF21), residues 33-209; differs only in that the 100 °C step was left out of the purification; The TEV site ENLYFQ/G stood between Trx and FGF21, so a Gly probably remains before residue 33 after cleavage (surmised); also called fibroblast growth factor 21; wild type FGF21; source: E. coli Rosetta (DE3), purified without heating; not shown: Trx, N-terminal, …
B4: htFGF21 variant with Q201H and A208T mutations (htM2) (ligand, human, UniProt Q9NSA1 33-209, looked up)
chain: DSSPLLQFGGQVRQRYLYTDDAQQTEAHLEIREDGTVGGAADQSPESLLQLKALKPGVIQILGVKTSRFLCQRPDGALYGSLHFDPEACSFRELLLEDGYNVYQSEAHGLPLHLPGNKSPHRDPAPRGPARFLPLPGLPPALPEPPGILAPQPPDVGSSDPLSMVGPSHGRSPSYTS
notes: human FGF21 with Q201H and A208T; A Gly from the TEV site probably remains at the N-terminus (surmised); not shown: Trx, N-terminal, cleaved
B5: htFGF21 variant with S195G, P199G, and S200G mutations (htM3) (ligand, human, UniProt Q9NSA1 33-209, looked up)
chain: DSSPLLQFGGQVRQRYLYTDDAQQTEAHLEIREDGTVGGAADQSPESLLQLKALKPGVIQILGVKTSRFLCQRPDGALYGSLHFDPEACSFRELLLEDGYNVYQSEAHGLPLHLPGNKSPHRDPAPRGPARFLPLPGLPPALPEPPGILAPQPPDVGSSDPLGMVGGGQGRSPSYAS
notes: human FGF21 with S195G, P199G and S200G; A Gly from the TEV site probably remains at the N-terminus (surmised); not shown: Trx, N-terminal, cleaved

Tests used:
[1] = target: T1, Human β-Klotho; experiment: cell-based or functional assay
[2] = target: T1, Human β-Klotho; experiment: SPR; Biacore 8K; FGF21s covalently immobilised on CM5 chip by amine coupling (about 700-900 RU); human β-Klotho injected as 2.5-fold series 250 to 1.024 nM at 30 μl/min; 25 °C; HBS-EP+ (10 mM HEPES pH 7.4, 150 mM NaCl, 3 mM EDTA, 0.05% polysorbate 20); global fit, 1:1 Langmuir model; conditions: both partners purified

| Binder | EC50 of FGFR1c/β-Klotho activation, luciferase reporter in modified HEK293 cells, 6 h [1] | Kd [2] | koff [2] | kon [2] |
| --- | --- | --- | --- | --- |
| B1 | 2.74 ng/mL | 12.9 nM | 0.00155 s⁻¹ | 121000 M⁻¹ s⁻¹ |
| B2 | 0.52 ng/mL | 4.32 nM | 0.000707 s⁻¹ | 164000 M⁻¹ s⁻¹ |
| B3 |  | 12.8 nM | 0.00159 s⁻¹ | 126000 M⁻¹ s⁻¹ |
| B4 | 1.37 ng/mL | 10.9 nM | 0.0013 s⁻¹ | 120000 M⁻¹ s⁻¹ |
| B5 | 0.75 ng/mL | 5.19 nM | 0.000785 s⁻¹ | 152000 M⁻¹ s⁻¹ |
